Experimental data: US20220220215A1 (CRESCENDO BIOLOGICS, published 2022)

Tests used:
[1] = molecular target: human CD137 expressed on cells (Jurkat human CD137 NF-kB luciferase reporter cells; human CD8+ T cells) (human, UniProt Q07011 24-255); test: cell-based or functional assay
[2] = molecular target: T1, human CD137 expressed on CHO cells (human, UniProt Q07011 18-255); test: FMAT/Mirrorball on CHO huCD137 cells
T1 construct: also called CHO huCD137; CHO human CD137 cells
Description: Binding of His-tagged molecules to CHO human CD137, CHO parent and CHO human PD1 cells was assessed using Fluorescence Microvolume Assay Technology (FMAT). All reagents were prepared in FMAT assay buffer (pH 7.4) containing PBS, 0.1% Bovine Serum Albumin, 0.05% Sodium Azide. […] Fluorescence emission was then measured on the TTP Mirrorball plate reader in the FL2 (502 nm-537 nm) and FL5 (677-800 nm) channels following excitation at 488 nm and 640 nm. Data was gated on FL5 perimeter and peak intensity and the FL2 median mean fluorescence intensity of the gated data used for determination of VH binding. Monovalent CD137 specific Humabody® VH, and trispecific molecules with a CD137 binding arm bound to CHO CD137 expressing cells. Trispecific Humabody® VH, with a PD1 binding arm bound to PD1 expressing cells.

[3] = molecular target: T2, Rhesus CD137-Fc tagged protein (rhesus, UniProt H9Z8K9 24-186); test: BLI (Octet RED384), CD137-Fc on Protein G sensor, 1:1 model
T2 construct: extracellular domain; The Octet paragraph gives no catalogue number; also called rhCD137-Fc
Description: Binding kinetics of purified monovalent VH molecules were measured on a ForteBio Octet RED 384 instrument. Human and Rhesus CD137-Fc tagged protein was diluted to 5 μg/ml in kinetics buffer (0.05% Tween, 1×PBS) and coupled to Protein G biosensors (ForteBio cat no. 18-5082) via the Fc tag. VH were serially diluted (typically 1:2 dilution series starting with 200 nM, VH at the highest concentration) and binding to the CD137-Fc-coupled Protein G biosensors measured. Binding kinetics were determined from the (blank subtracted) sensor gram trace using 1:1 binding models and ForteBio Octet Data Analysis 9.0 software. Example kinetic and binding affinity data obtained is shown Table 18 (monovalent VH).

[4] = molecular target: T3, recombinant Fc-tagged ectodomain of human PD1 (Acro Biosystems PD1-H5257) (human, UniProt Q15116 25-170); test: SPR, Biacore 8K, single-cycle kinetics; Fc-tagged ectodomain captured on Protein G chip; 1:1 model
T3 construct: Bought protein; not shown: Fc tag
Description: (§1) Binding of Humabody® VH constructs was measured using a single-cycle kinetics method using the BIAcore 8K instrument with 90 second sample injections with a sample concentration range of low nanomolar to high nanomolar. […] The Protein G sensor surface was regenerated with a 20 second injection of 10 mM Glycine buffer, pH 1.5 (GE Healthcare BR100354). Data were analysed using a 1:1 binding model in Biacore Insight Evaluation software, including Humabody® VH constructs with two PD-1 arms.

[5] = molecular target: T4, recombinant Fc-tagged ectodomain of human CD137 (Acro Biosystems 41B-H5258) (human, UniProt Q07011 24-186); test: as above
T4 construct: Bought protein; not shown: Fc tag
Description: as §1

Binder | EC50 [2] [nM] | Kd [3] [nM] | koff [3] [s⁻¹] | kon [3] [M⁻¹ s⁻¹] | further results
TPP-942: PDA-6GS-172E1-13-6GS-HSA2-2-His (bispecific antibody) EVQLVESGGGLVQPGRSLRLSCAASGFTFDDYALHWVRQAPGKDLEWVSGISWNGGSYGYADSVKGRFTISRDNAKNSLYLQMNSLRAEDTALYYCVREKGPGLTGSTADYYGLDAWGQGTMVTVSSGGGGSGGGGSGGGGSGGGGSGGGGSGGGGSEVQLVESGGGVVQPGGSLRLSCAASGFTFSNYGMHWVRQAPGKGLEWVAVISNDGNTKTYADSVKGRFTISRDNSKNTLYLQMNSLRAEDTAVYYCAQDETTTVTASYYFDYWGQGTLVTVSSGGGGSGGGGSGGGGSGGGGSGGGGSGGGGSEVQLVESGGGLVKPGGSLRLSCAASGFTFSNYNMNWVRQAPGKGLEWVSSISSAGTHIYYADSVKGRFTISRDNAKNSLYLQMNSLRAEDTAVYYCARDPHSTGWYKDFDYWGQGTLVTVSSAAAHHHHHH |  |  |  |  | Jurkat-CD137/CHO-PD-1 Reporter Assay EC50 [1]: 57.4 nM
TPP-943: PDA-6GS-172E1-13-6GS-HSA2-His (bispecific antibody) EVQLVESGGGLVQPGRSLRLSCAASGFTFDDYALHWVRQAPGKDLEWVSGISWNGGSYGYADSVKGRFTISRDNAKNSLYLQMNSLRAEDTALYYCVREKGPGLTGSTADYYGLDAWGQGTMVTVSSGGGGSGGGGSGGGGSGGGGSGGGGSGGGGSEVQLVESGGGVVQPGGSLRLSCAASGFTFSNYGMHWVRQAPGKGLEWVAVISNDGNTKTYADSVKGRFTISRDNSKNTLYLQMNSLRAEDTAVYYCAQDETTTVTASYYFDYWGQGTLVTVSSGGGGSGGGGSGGGGSGGGGSGGGGSGGGGSEVQLLESGGGLVKPGGSLRLSCAASGFTVSSYTMNWVRQAPGKGLEWVSSISSSGRYIYYADSVKGRFTISRDNAKNSLYLQMNSLRAEDTAVYYCARDPRMVGNPHEFDIWGQGTMVTVSSAAAHHHHHH |  |  |  |  | Jurkat-CD137/CHO-PD-1 Reporter Assay EC50 [1]: 25.7 nM
TPP-950: PDA2-6GS-172E1-13-6GS-HSA2-His (bispecific antibody) EVQLVESGGGVVRPGGSLRLSCAASGFTFDDYAMSWVRQAPGKGLEWVSGITWNAGSTGYADSVKGRFTISRDNAKNSLYLQMNSLRAEDTALYYCVRDKYSYAWSYDDFDIWGQGTMVTVSSGGGGSGGGGSGGGGSGGGGSGGGGSGGGGSEVQLVESGGGVVQPGGSLRLSCAASGFTFSNYGMHWVRQAPGKGLEWVAVISNDGNTKTYADSVKGRFTISRDNSKNTLYLQMNSLRAEDTAVYYCAQDETTTVTASYYFDYWGQGTLVTVSSGGGGSGGGGSGGGGSGGGGSGGGGSGGGGSEVQLVESGGGLVKPGGSLRLSCAASGFTFSNYNMNWVRQAPGKGLEWVSSISSAGTHIYYADSVKGRFTISRDNAKNSLYLQMNSLRAEDTAVYYCARDPHSTGWYKDFDYWGQGTLVTVSSAAAHHHHHH |  |  |  |  | Jurkat-CD137/CHO-PD-1 Reporter Assay EC50 [1]: 43 nM
003BB172-E01-5 (VHH, Human VH single domain antibody, monovalent) VHH: EVQLVESGGGLVQPGGSLRLSCAASGFTFSNYGMHWVRQAPGKRLEWVAVISNDGNTKTYADSVKGRFTISRDNSKNTLYLQMNSLRTEDTAVYYCAQDETTTVTASYYFDYWGQGTLVTVSS | 1.29 | 11.5 | 0.00164 | 142000 | 
003BB172-E01-10 (VHH, Human VH single domain antibody, monovalent) VHH: EVQLVESGGGLVQPGRSLRLSCAASGFTFSNYGMHWVRQAPGKGLEWVAVISNDGNTKTYADSVKGRFTISRDNSKNTLYLQMNSLRTEDTAVYYCAQDETTTVTASYYFDYWGQGTLVTVSS | 1.22 | 36.9 | 0.00249 | 67400 | 
003BB172-E01-13 (VHH, Human VH single domain antibody, monovalent; also called CD137D; 172E1-13) VHH: EVQLVESGGGVVQPGGSLRLSCAASGFTFSNYGMHWVRQAPGKGLEWVAVISNDGNTKTYADSVKGRFTISRDNSKNTLYLQMNSLRAEDTAVYYCAQDETTTVTASYYFDYWGQGTLVTVSS | 0.954 | 22.8 | 0.00253 | 111000 | 
003BB172-E01-8 (VHH, Human VH single domain antibody, monovalent) VHH: EVQLVESGGGVVQPGGSLRLSCAASGFTFSNYGMHWVRQAPGKGLEWVAVISNDGNTKTYADSVKGRFTISRDNSKNTLYLQMNSLRTEDTAVYYCAQDETTTVTASYYFDYWGQGTLVTVSS | 1.08 | 41.4 | 0.00269 | 65000 | 
003BB172-E01-11 (VHH, Human VH single domain antibody, monovalent) VHH: EVQLVESGGGVVQPGRSLRLSCAASGFTFSNYGMHWVRQAPGKGLEWVAVISNDGNTKTYADSVKGRFTISRDNSKNTLYLQMNSLRTEDTAVYYCAQDETTTVTASYYFDYWGQGTLVTVSS | 1.21 | 33.1 | 0.0024 | 72500 | 
003BB172-E01-9 (VHH, Human VH single domain antibody, monovalent) VHH: EVQLVESGGGLVQPGGSLRLSCAASGFTFSNYGMHWVRQAPGKGLEWVAVISNDGNTKTYADSVKGRFTISRDNSKNTLYLQMNSLRAEDTAVYYCAQDETTTVTASYYFDYWGQGTLVTVSS | 0.849 | 23 | 0.00235 | 102000 | 
003BB172-E01-7 (VHH, Human VH single domain antibody, monovalent; also called CD137C) VHH: EVQLVESGGGLVQPGGSLRLSCAASGFTFSNYGMHWVRQAPGKGLEWVAVISNDGNTKTYADSVKGRFTISRDNSKNTLYLQMNSLRTEDTAVYYCAQDETTTVTASYYFDYWGQGTLVTVSS | 1.28 | 40.7 | 0.00233 | 57300 | 
003BB172-E01-12 (VHH, Human VH single domain antibody, monovalent) VHH: EVQLVESGGGLVQPGRSLRLSCAASGFTFSNYGMHWVRQAPGKGLEWVAVISNDGNTKTYADSVKGRFTISRDNSKNTLYLQMNSLRAEDTAVYYCAQDETTTVTASYYFDYWGQGTLVTVSS | 1.21 | 38.6 | 0.0023 | 59700 | 
003BB172-E01-6 (VHH, Human VH single domain antibody, monovalent; also called CD137B) VHH: EVQLVESGGGLVQPGGSLRLSCAASGFTFSNYGMHWVRQAPGKGLEWVAVISNDGNTKTYADSVKGRFTISRDNSKNMLYLQMNSLRTEDTAVYYCAQDETTTVTASYYFDYWGQGTLVTVSS | 1.08 | 39 | 0.00287 | 73600 | 
TPP-1408 PD138G7(G109D)-1GS-HSA2-1GS-CD137D (bispecific antibody) EVQLVESGGGVVRPGGSLRLSCAASGFTFDDYAMSWVRQAPGKGLEWVSGITWNGGSTGYADSVKDRFTISRDNAKNSLYLQMNSLRAEDTALYYCVRDKYSYAWSYDDFDIWGQGTMVTVSSGGGGSEVQLVESGGGLVKPGGSLRLSCAASGFTFSNYNMNWVRQAPGKGLEWVSSISSAGTHIYYADSVKGRFTISRDNAKNSLYLQMNSLRAEDTAVYYCARDPHSTGWYKDFDYWGQGTLVTVSSGGGGSEVQLVESGGGVVQPGGSLRLSCAASGFTFSNYGMHWVRQAPGKGLEWVAVISNDGNTKTYADSVKGRFTISRDNSKNTLYLQMNSLRAEDTAVYYCAQDETTTVTASYYFDYWGQGTLVTVSS |  |  |  |  | Kd [4]: 4.45 nM; koff [4]: 0.00113 s⁻¹; kon [4]: 255000 M⁻¹ s⁻¹; Kd [5]: 95.1 nM; koff [5]: 0.00383 s⁻¹; kon [5]: 40300 M⁻¹ s⁻¹
TPP-951: PDA2-6GS-172E1-13-6GS-HSA3-His (bispecific antibody) EVQLVESGGGVVRPGGSLRLSCAASGFTFDDYAMSWVRQAPGKGLEWVSGITWNAGSTGYADSVKGRFTISRDNAKNSLYLQMNSLRAEDTALYYCVRDKYSYAWSYDDFDIWGQGTMVTVSSGGGGSGGGGSGGGGSGGGGSGGGGSGGGGSEVQLVESGGGVVQPGGSLRLSCAASGFTFSNYGMHWVRQAPGKGLEWVAVISNDGNTKTYADSVKGRFTISRDNSKNTLYLQMNSLRAEDTAVYYCAQDETTTVTASYYFDYWGQGTLVTVSSGGGGSGGGGSGGGGSGGGGSGGGGSGGGGSEVQLLESGGGLVKPGGSLRLSCAASGFTVSSYTMNWVRQAPGKGLEWVSSISSSGRYIYYADSVKGRFTISRDNAKNSLYLQMNSLRAEDTAVYYCARDPRMVGNPHEFDIWGQGTMVTVSSAAAHHHHHH |  |  |  |  | Jurkat-CD137/CHO-PD-1 Reporter Assay EC50 [1]: 14.1 nM
